Source: US20220265770A1, “TREATING NEURODEGENERATIVE DISEASES WITH PROGRANULIN” (NEURODYN, INC., priority 2008, published 2022)

Tests used:
[1] = system: NSC-34 cells; test: BSSG-induced toxicity in NSC-34 and NSC-34-hPGRN cells (MTT); assay type: cell-based
Experimental: Normal NSC-34 and a stable NSC-34 transfectant that over expressed human PGRN (NSC-34-hPGRN) NCS34 were maintained in culture using DMEM supplemented with 5% (v/v) fetal calf serum (FCS). Cells were aliquoted in 96-well plates at a density of 8,000 cells/well in 200 uL of DMEM 5% FCS.d After two hours the neurotoxin Beta-sitosteryl glucoside (BSSG) was added at concentrations of 0, 100, 250, 500, 1000 and 2500 ng/mL with a final culture volume of 250 uL along with 0.1% (v/v) DMSO throughout. As a negative control for cell proliferation/survival, a series of wells were washed and media replaced with DMEM containing no FCS. Following 72 hours cell viability was measured using the MTT assay (Vybrant MTT Cell proliferation Assay; Invitrogen) according to manufacturer's instructions.
To determine if PGRN was capable of protecting NSC-34 cells against BSSG neurotoxicity a stable transfectant was developed to over express human PGRN constitutively.

[2] = system: NSC-34 cells; test: NSC-34 serum deprivation with hPGRN protein (Alamar Blue); assay type: cell-based; details: hPGRN 100 ng/ml, Day 4, Alamar Blue
Experimental: Normal NSC-34 cells were maintained in culture using DMEM supplemented with 5% (v/v) fetal calf serum (FCS). Cells were aliquoted in 96-well plates at a density of 6,000 cells/well in 200 uL of DMEM 5% FCS. After 2 hours of culture (to ensure cell adhesion) media was removed, cells washed 1× with PBS and DMEM serum free medium with or without hPGRN (100 ng/ml) added to the cells. Following one and four days of culture remaining metabolically active cells were detected using the Alamar Blue® methodology (Molecular Probes/Invitrogen) following the manufacturer's instructions.

[3] = system: PC12 cells; test: Protection against MPTP toxicity in PC12 cells (MTT); assay type: cell-based; details: 4 nM progranulin 24 h pretreatment; 0-1000 μM MPTP 24 h
Experimental: PC12 cells were grown on collagen-coated 96-well plates, in Dulbecco's minimal essential medium (DMEM) in the presence of 10% fetal calf serum (FCS) supplemented with glutamine, penicillin and streptomycin. One day after plating (at 60-70% confluence, 40,000 cells/well), the growth medium was replaced by low-serum (2% FCS) medium with 4 nM progranulin (PGRN+) or without progranulin (PGRN−) (FIG. 19). […] 43(5-6):155-158 (2007)]

[4] = system: rat motor neurons; details: literature (Van Damme et al.); cited from earlier work

B1: Progranulin: growth factor-like protein; human progranulin SEQ ID NO: 2 (protein, listed as Homo sapiens)
chain: MWTLVSWVALTAGLVAGTRCPDGQFCPVACCLDPGGASYSCCRPLLDKWPTTLSRHLGGPCQVDAHCSAGHSCIFTVSGTSSCCPFPEAVACGDGHHCCPRGFHCSADGRSCFQRSGNNSVGAIQCPDSQFECPDFSTCCVMVDGSWGCCPMPQASCCEDRVHCCPHGAFCDLVHTRCITPTGTHPLAKKLPAQRTNRAVALSSSVMCPDARSRCPDGSTCCELPSGKYGCCPMPNATCCSDHLHCCPQDTVCDLIQSKCLSKENATTDLLTKLPAHTVGDVKCDMEVSCPDGYTCCRLQSGAWGCCPFTQAVCCEDHIHCCPAGFTCDTQKGTCEQGPHQVPWMEKAPAHLSLPDPQALKRDVPCDNVSSCPSSDTCCQLTSGEWGCCPIPEAVCCSDHQHCCPQGYTCVAEGQCQRGSEIVAGLEKMPARRASLSHPRDIGCDQHTSCPVGQTCCPSLGGSWACCQLPHAVCCEDRQHCCPAGYTCNVKARSCEKEVVSAQPATFLARSPHVGVKDVECGEGHFCHDNQTCCRDNRQGWACCPYRQGVCCADRRHCCPAGFRCAARGTKCLRREAPRWDAPLRDPALRQLL
**Q.** With B1 as the molecule, how does the “cell survival in serum free cultures (MTT)” value ([1]; PGRN over expression, 72 hours, no FCS) read?
**A.** Its value is “increased cell survival”.

**Q.** And the “protection against BSSG neurotoxicity (MTT)” value ([1]; stable transfectant over expressing human PGRN, 72 hour, 1000 and 2500 ng/mL BSSG)?
**A.** The value was “protected NSC-34 cells”.

**Q.** And the “increase in cell survival following serum starvation” value [2]?
**A.** Its value is 2.5 fold.

**Q.** What about the “cell viability against MPTP (MTT)” value [3] of the same molecule?
**A.** The value was “protective effect”.

**Q.** And the “survival of rat motor neurons under serum deprivation” value [4]?
**A.** Its value is “increased survival of rat motor neurons”.
